Experiments:
[1] = target: T1, HS-T4 DNA ligase (Enterobacteria phage T4, UniProt P00970 P00970:1-487); assay: ligation gel assay to SEQ 3 adaptor; agarose-immobilized form retains activity after 60-100 C, soluble form does not; settings: tags: SNAP-tag fusion, soluble or immobilized on BG-agarose
T1 chain: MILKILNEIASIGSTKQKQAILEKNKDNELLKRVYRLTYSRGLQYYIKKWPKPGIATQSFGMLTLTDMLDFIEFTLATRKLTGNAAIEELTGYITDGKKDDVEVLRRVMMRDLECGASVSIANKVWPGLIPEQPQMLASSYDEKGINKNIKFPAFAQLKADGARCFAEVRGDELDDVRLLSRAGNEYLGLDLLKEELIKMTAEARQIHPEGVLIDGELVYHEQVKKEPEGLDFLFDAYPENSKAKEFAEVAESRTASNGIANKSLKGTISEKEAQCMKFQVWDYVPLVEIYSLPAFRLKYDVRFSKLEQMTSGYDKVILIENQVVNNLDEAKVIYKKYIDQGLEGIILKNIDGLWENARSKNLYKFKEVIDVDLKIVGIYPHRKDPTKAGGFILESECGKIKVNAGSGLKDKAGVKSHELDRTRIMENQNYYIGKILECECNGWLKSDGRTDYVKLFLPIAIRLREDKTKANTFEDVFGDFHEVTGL
Description: (§1) A FAM-labeled DNA duplex was formed by annealing synthetic oligomer, Gene32FAM-fw3′A, /56-FAMN/CA TGGTGATTACGATTCTTGCCCAGTATGTCAATACATCAGTAAAAATA (SEQ ID NO:1) and Gene32-rv5′p, /5Phos/AT TTTTACTGATGTATTGACATACTGGGCAAGAATCGTAATCAC CATG (SEQ ID NO:2).
(§2) For heat treatment, an aliquot of 15.83 μL from an enzyme master mixture was incubated at 4, 40, 60, 80, 90, 95 or 100° C. for 10 min, followed by addition of 9.17 μL of the DNA substrate mixture. All the ligation reactions were carried out at 4° C. overnight in a shaker. The samples were analyzed by electrophoresis on a 12% Tris-Glycine PAGE (Novex/Invitrogen) in 1×TAE Buffer for 2.5 hours at 25 mA (current). […] In contrast, HS-T4 DNA Ligase immobilized to BG-Agarose beads retained enzymatic activity after treatment in the same range of elevated temperature tested.

[2] = target: T2, T4 DNA ligase (Enterobacteria phage T4, UniProt P00970 P00970:1-487); assay: ligation gel assay to SEQ 3 adaptor, 4 C; no activity after 60-100 C pretreatment; settings: tags: untagged, NEB M0202
T2 sequence: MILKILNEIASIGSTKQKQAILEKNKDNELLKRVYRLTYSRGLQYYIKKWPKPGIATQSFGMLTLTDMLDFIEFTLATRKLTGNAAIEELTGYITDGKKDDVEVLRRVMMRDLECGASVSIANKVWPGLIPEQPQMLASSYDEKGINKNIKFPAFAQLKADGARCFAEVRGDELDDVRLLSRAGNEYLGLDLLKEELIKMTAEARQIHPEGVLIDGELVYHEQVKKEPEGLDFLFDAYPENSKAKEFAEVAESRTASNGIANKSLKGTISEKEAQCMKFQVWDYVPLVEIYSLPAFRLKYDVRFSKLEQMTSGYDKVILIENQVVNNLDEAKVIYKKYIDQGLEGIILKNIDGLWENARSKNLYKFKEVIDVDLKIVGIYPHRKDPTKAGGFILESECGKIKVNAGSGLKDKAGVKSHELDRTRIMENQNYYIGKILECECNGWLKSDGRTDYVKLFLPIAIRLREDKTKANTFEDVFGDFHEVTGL
Description: as §1, §2

B1: Gene32 FAM duplex + TA adaptor (dsDNA)
DNA 1: CATGGTGATTACGATTCTTGCCCAGTATGTCAATACATCAGTAAAAATA
DNA 2: ATTTTTACTGATGTATTGACATACTGGGCAAGAATCGTAATCACCATG
modifications: 5'-phosphate on SEQ 2
- binding result [1]: binds
- binding result [2]: binds

— patent publication US20230287376, “IMMOBILIZED ENZYME COMPOSITIONS AND METHODS” (New England Biolabs, Inc., published 2023)
